{"source": "patent US20180105574A1", "key": {"[1]": {"molecular_target": "human fibrinogen (purified, commercial) (human) (UniProt P02671)", "sequence (P02671 20-629 limits assumed, chain 1 of 3)": "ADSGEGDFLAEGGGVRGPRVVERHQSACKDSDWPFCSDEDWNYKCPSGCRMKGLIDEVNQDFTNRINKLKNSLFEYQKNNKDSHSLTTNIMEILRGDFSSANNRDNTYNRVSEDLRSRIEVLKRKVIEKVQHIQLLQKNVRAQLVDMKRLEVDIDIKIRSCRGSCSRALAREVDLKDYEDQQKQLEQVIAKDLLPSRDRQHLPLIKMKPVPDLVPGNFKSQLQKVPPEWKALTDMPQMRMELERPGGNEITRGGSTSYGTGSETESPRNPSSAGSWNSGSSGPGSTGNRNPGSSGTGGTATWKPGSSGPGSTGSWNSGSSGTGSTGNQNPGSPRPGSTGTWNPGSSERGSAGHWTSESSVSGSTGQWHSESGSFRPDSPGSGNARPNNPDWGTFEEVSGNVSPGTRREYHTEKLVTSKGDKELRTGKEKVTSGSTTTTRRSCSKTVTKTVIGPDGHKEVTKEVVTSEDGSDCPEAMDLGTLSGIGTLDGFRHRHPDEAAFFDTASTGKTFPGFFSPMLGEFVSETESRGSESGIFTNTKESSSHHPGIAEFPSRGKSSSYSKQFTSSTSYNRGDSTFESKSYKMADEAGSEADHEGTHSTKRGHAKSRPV", "sequence (chain, as listed by the source limits assumed, chain 2 of 3)": "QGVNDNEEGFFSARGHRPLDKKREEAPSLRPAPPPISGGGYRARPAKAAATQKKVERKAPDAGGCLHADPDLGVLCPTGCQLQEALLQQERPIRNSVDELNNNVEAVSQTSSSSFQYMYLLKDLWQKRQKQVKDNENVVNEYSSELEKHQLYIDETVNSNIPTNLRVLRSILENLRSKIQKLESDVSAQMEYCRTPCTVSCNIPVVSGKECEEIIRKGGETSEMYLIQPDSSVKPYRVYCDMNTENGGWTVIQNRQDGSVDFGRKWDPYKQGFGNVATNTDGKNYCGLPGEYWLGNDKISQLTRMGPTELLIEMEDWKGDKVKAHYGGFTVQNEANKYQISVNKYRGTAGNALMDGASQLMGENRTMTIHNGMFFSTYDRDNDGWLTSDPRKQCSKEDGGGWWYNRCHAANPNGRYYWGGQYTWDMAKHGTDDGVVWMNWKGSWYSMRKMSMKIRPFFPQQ", "sequence (P02679 other isoform, or with tags, fused parts or gaps limits assumed, chain 3 of 3, further chain)": "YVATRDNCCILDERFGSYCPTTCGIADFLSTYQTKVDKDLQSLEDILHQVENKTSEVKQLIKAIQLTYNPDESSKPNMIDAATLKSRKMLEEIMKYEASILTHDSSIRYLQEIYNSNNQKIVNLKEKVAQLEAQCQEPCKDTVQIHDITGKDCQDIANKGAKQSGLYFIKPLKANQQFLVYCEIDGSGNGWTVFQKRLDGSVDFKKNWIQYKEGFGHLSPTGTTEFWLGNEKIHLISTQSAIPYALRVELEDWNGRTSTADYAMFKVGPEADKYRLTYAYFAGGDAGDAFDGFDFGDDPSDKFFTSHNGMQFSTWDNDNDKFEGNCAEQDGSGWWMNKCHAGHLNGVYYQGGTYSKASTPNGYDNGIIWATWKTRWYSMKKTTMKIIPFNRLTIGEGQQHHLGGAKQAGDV", "assay": "fibrinogen binding activity of the gel filtration pool (pure Pfg), biotinylated fibrinogen"}, "[2]": {"molecular_target": "human fibrinogen (purified, commercial) (human) (UniProt P02671)", "assay": "fibrinogen binding activity of the anion exchange pool (partly purified Pfg), biotinylated fibrinogen"}, "[3]": {"molecular_target": "human fibrinogen (purified, commercial) (human) (UniProt P02671)", "assay": "fibrinogen binding activity of purification step, biotinylated fibrinogen"}, "[4]": {"molecular_target": "human fibrinogen (purified, commercial) (human) (UniProt P02671)", "assay": "fibrinogen binding activity after ammonium sulfate precipitation, biotinylated fibrinogen"}, "[5]": {"molecular_target": "P. acnes total surface protein extract", "assay": "plate assay, extract 0.8 to 50 µg/ml immobilized, biotinylated fibrinogen 0.1 µg/ml"}}, "note": "Values joined by “and” are separate entries in the source; they are usually repeats but may differ in a detail not shown here. Equal values may be shown once."}
{"substance": "Pfg, 58-kDa P. acnes surface protein (fibrinogen binding protein; putative adhesion or S-layer protein YP_056792, locus tag PPA2127)", "values": [{"measurement": "Specific Activity (fibrinogen binding activity per unit of protein)", "setting": "[1]", "value": 1840, "unit": "U/mg"}, {"measurement": "Total units (fibrinogen binding activity)", "setting": "[1]", "value": 368, "unit": "U"}, {"measurement": "Specific Activity (fibrinogen binding activity per unit of protein)", "setting": "[2]", "value": 1030, "unit": "U/mg"}, {"measurement": "Total units (fibrinogen binding activity)", "setting": "[2]", "value": 3000, "unit": "U"}]}
{"substance": "P. acnes total surface protein extract", "values": [{"measurement": "Specific Activity (fibrinogen binding activity per unit of protein)", "setting": "[3]", "value": "423 U/mg and 290 U/mg"}, {"measurement": "Total units (fibrinogen binding activity)", "setting": "[3]", "value": "390000 U and 160000 U"}, {"measurement": "fold increase in specific activity against the unconcentrated lithium extract", "setting": "[4]", "value": 1.45, "unit": "fold"}]}
{"substance": "human fibrinogen (purified, commercial) (from UniProt P02671 20-629; P02679 27-437) (ligand)", "values": [{"measurement": "concentration of immobilized extract at which binding reaches a plateau", "setting": "[5]", "value": 6.25, "unit": "µg/mL"}]}
